Experimental data reported in patent US8299028B2, “Chimeric peptide antagonist for GPCR135 or GPCR142” (Janssen Pharmaceutica NV, priority 2007, dated 2012).

Experiments:
Assay type in all cases: cell-based
[1] = target: T1, human LGR7 (Homo sapiens, UniProt Q9HBX9); test: Agonist assay, stimulation of β-gal expression in SK-N-MC/CRE-β-gal cells; design: expressed in transfected cells; host or cells: SK-N-MC/CRE-β-gal
T1 sequence (Q9HBX9 1-757): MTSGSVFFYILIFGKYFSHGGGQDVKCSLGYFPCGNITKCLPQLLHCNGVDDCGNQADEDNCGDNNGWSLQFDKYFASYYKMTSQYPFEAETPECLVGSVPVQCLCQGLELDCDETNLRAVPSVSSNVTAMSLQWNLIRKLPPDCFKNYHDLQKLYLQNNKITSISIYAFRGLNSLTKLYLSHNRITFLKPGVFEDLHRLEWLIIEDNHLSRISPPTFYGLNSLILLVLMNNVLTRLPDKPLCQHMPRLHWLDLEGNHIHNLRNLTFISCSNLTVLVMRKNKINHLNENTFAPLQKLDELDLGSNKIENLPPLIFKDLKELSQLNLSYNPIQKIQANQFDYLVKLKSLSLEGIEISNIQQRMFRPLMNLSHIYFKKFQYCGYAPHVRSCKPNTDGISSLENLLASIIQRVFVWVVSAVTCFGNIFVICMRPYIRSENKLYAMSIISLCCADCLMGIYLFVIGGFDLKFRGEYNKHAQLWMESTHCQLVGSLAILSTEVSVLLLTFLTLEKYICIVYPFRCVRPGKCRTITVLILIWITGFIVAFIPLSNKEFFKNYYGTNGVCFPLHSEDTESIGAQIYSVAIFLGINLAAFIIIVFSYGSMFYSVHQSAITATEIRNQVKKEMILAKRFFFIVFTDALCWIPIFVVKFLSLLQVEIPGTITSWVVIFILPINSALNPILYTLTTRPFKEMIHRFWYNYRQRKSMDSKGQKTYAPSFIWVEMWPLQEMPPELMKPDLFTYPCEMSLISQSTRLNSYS
Protocol: (§1) FIG. 1 provides a characterization of mutant relaxin-3 peptides as ligands for human GPCR135, GPCR142, and LGR7. The truncated peptides were tested for their GPCR135 and GPCR142 agonist activity using SK-N-MC/CRE-β-gal cells expressing either human GPCR135 (A) or GPCR142 (B). Agonists for GPCR135 or GPCR142 inhibit forskolin induced β-galactosidase (β-gal) expression. The LGR7 agonist activity of the truncated peptides was tested using SK-N-MC/CRE-β-gal cells expressing Gαs-linked human LGR7 (C). Human relaxin-3 was used as positive control in both cases. β-gal expression was measured by colorimetric assay using CPRG as the substrate and reading the absorbance at 570 nm.
(§2) All peptides were tested for their GPCR135, GPCR142, and LGR7 agonist activities in SK-N-MC/CRE cells expressing the relevant receptors as described by Liu et al., 2005b. […] An increase in cAMP concentration in these cells is associated with increased β-gal expression, which can be measured using Chlorophenol Red-β-D-Galactopyranoside (CRGP) as a substrate and reading the optical absorbance at 570 nm. […] The results were analyzed using GraphPad Prism 4.0 software. […] The agonism and antagonism of peptides for rat LGR7 was assayed using a cAMP luminescence assay. […] The cAMP in the cells was measured with a cAMP detection kit (DiscoveRx HitHunter, Cat. #90-0041) according to the manufacturer's protocol. […]

[2] = target: T2, human GPCR135 (Homo sapiens, UniProt Q9NSD7); test: Antagonism: rightward shift of relaxin-3 dose-response curve, SK-N-MC/CRE-β-gal reporter assay; design: expressed in transfected cells; conditions: pharmacological characterization
T2 sequence (Q9NSD7 1-469): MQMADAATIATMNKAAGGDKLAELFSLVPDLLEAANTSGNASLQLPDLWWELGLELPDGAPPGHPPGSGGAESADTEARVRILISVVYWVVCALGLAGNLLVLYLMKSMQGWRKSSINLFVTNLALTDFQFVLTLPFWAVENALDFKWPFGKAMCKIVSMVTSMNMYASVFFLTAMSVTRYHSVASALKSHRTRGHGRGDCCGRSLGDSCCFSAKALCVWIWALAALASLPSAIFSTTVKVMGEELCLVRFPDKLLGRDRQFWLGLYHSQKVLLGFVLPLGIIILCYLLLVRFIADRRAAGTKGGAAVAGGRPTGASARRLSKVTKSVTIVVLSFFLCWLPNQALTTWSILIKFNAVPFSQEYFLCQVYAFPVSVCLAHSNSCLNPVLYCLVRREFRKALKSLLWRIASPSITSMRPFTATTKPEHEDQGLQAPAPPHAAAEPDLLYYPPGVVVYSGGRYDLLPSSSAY
Protocol: In a functional assay using SK-N-MC/CRE-β-gal cells expressing human GPCR135 (A), GPCR142 (B) or LGR7 (C), ascending concentrations of relaxin-3 (R3) were used to generate dose response curves either in the absence or presence of 10 nM, 100 nM or 1 μM R3(BΔ23-27)R/I5. For Gαi linked GPCR135 and GPCR142, the assay was performed as inhibition of forskolin-induced β-gal expression. LGR7 is linked to Gαs, therefore addition of forskolin is not necessary. The antagonism of R3(BΔ23-27)R/I5 is indicated by the rightward-shift of the relaxin-3's dose-response curve.
All peptides were tested for their GPCR135, GPCR142, and LGR7 agonist activities in SK-N-MC/CRE cells expressing the relevant receptors as described by Liu et al., 2005b. […] An increase in cAMP concentration in these cells is associated with increased β-gal expression, which can be measured using Chlorophenol Red-β-D-Galactopyranoside (CRGP) as a substrate and reading the optical absorbance at 570 nm. […] The results were analyzed using GraphPad Prism 4.0 software. […] The agonism and antagonism of peptides for rat LGR7 was assayed using a cAMP luminescence assay. […] The cAMP in the cells was measured with a cAMP detection kit (DiscoveRx HitHunter, Cat. #90-0041) according to the manufacturer's protocol. The results were analyzed using GraphPad Prism 4.0 software.

[3] = target: T2, human GPCR135; test: Agonist assay, inhibition of forskolin-induced β-gal expression in SK-N-MC/CRE-β-gal cells; design: expressed in transfected cells; conditions: human GPCR135 agonist response, mean ± SEM; NA = no agonist activity observed
Protocol: as §1, §2

**Q.** How did the EC50 ([1]; human LGR7 agonist response, mean ± SEM, NA = no agonist activity observed) turn out when “R3(BΔ23-27)R: Relaxin-3 mutant: B-chain SEQ ID NO:15 (Gly23-Trp27 deleted plus C-terminal Arg), relaxin-3 A-chain SEQ ID NO:13” was run?
**A.** > 1000 nM

**Q.** What about the “agonist activity at human LGR7” value ([1]; stimulation of β-gal expression) of the same substance?
**A.** no LGR7 agonist activity

**Q.** And the “GPCR135 antagonist character” value [2]?
**A.** GPCR135 antagonists

**Q.** What about the EC50 [3] of the same substance?
**A.** > 1000 nM
